# Test results: publication doi:10.1101/2022.10.14.512051 (bioRxiv, 2022)
# B1: Alexa-labeled LIS1 (biotinylated StrepII-Avi-LIS1 with Alexa488-coupled streptavidin) (natural protein, human, UniProt P43034 1-410, looked up)
# chain: MVLSQRQRDELNRAIADYLRSNGYEEAYSVFKKEAELDVNEELDKKYAGLLEKKWTSVIRLQKKVMELESKLNEAKEEFTSGGPLGQKRDPKEWIPRPPEKYALSGHRSPVTRVIFHPVFSVMVSASEDATIKVWDYETGDFERTLKGHTDSVQDISFDHSGKLLASCSADMTIKLWDFQGFECIRTMHGHDHNVSSVAIMPNGDHIVSASRDKTIKMWEVQTGYCVKTFTGHREWVRMVRPNQDGTLIASCSNDQTVRVWVVATKECKAELREHEHVVECISWAPESSYSSISEATGSETKKSGKPGPFLLSGSRDKTIKMWDVSTGMCLMTLVGHDNWVRGVLFHSGGKFILSCADDKTLRVWDYKNKRCMKTLNAHEHFVTSLDFHKTAPYVVTGSVDQTVKVWECR
# modifications: biotin on the Avi tag
# B2: Alexa-labeled WDR1 (biotinylated StrepII-Avi-WDR1 with Alexa488-coupled streptavidin) (natural protein, human, UniProt O75083 1-606, looked up)
# chain: MPYEIKKVFASLPQVERGVSKIIGGDPKGNNFLYTNGKCVILRNIDNPALADIYTEHAHQVVVAKYAPSGFYIASGDVSGKLRIWDTTQKEHLLKYEYQPFAGKIKDIAWTEDSKRIAVVGEGREKFGAVFLWDSGSSVGEITGHNKVINSVDIKQSRPYRLATGSDDNCAAFFEGPPFKFKFTIGDHSRFVNCVRFSPDGNRFATASADGQIYIYDGKTGEKVCALGGSKAHDGGIYAISWSPDSTHLLSASGDKTSKIWDVSVNSVVSTFPMGSTVLDQQLGCLWQKDHLLSVSLSGYINYLDRNNPSKPLHVIKGHSKSIQCLTVHKNGGKSYIYSGSHDGHINYWDSETGENDSFAGKGHTNQVSRMTVDESGQLISCSMDDTVRYTSLMLRDYSGQGVVKLDVQPKCVAVGPGGYAVVVCIGQIVLLKDQRKCFSIDNPGYEPEVVAVHPGGDTVAIGGVDGNVRLYSILGTTLKDEGKLLEAKGPVTDVAYSHDGAFLAVCDASKVVTVFSVADGYSENNVFYGHHAKIVCLAWSPDNEHFASGGMDMMVYVWTLSDPETRVKIQDAHRLHHVSSLAWLDEHTLVTTSHDASVKEWTITY
# modifications: biotin on the Avi tag
# Columns and labels:
# His-DDB1 (recombinant) = His-DDB1 (recombinant) (human, UniProt Q16531 1-1140); test: fluorescence polarisation
# [1] = target: CRL4A complex (CUL4A, DDB1, RBX1) (human | , UniProt Q13619 1-759; Q16531 1-1140; P62877 1-108); test: fluorescence polarisation
# Chain of CRL4A complex (CUL4A, DDB1, RBX1) (Q13619 whole entry, chain 1 of 3): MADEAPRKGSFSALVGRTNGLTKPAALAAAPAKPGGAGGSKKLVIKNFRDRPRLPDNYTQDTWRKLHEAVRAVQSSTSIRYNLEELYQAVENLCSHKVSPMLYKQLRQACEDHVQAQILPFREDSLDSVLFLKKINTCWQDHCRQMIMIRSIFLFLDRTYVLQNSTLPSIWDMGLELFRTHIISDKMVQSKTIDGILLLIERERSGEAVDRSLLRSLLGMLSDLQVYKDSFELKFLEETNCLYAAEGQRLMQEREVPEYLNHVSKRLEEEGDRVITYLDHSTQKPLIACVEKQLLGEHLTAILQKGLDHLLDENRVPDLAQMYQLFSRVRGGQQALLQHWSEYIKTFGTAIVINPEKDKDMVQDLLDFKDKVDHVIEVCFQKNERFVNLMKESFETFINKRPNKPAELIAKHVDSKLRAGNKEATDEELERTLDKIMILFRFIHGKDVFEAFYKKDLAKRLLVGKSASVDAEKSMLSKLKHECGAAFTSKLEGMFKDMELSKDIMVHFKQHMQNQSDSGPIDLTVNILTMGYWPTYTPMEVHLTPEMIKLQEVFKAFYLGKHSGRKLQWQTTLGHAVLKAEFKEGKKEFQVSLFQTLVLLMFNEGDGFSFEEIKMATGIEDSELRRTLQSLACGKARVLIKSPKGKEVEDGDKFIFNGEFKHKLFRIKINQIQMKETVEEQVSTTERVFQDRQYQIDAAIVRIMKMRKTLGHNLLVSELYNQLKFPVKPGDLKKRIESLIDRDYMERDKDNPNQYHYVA
# Chain of CRL4A complex (CUL4A, DDB1, RBX1) (Q16531 whole entry, chain 2 of 3): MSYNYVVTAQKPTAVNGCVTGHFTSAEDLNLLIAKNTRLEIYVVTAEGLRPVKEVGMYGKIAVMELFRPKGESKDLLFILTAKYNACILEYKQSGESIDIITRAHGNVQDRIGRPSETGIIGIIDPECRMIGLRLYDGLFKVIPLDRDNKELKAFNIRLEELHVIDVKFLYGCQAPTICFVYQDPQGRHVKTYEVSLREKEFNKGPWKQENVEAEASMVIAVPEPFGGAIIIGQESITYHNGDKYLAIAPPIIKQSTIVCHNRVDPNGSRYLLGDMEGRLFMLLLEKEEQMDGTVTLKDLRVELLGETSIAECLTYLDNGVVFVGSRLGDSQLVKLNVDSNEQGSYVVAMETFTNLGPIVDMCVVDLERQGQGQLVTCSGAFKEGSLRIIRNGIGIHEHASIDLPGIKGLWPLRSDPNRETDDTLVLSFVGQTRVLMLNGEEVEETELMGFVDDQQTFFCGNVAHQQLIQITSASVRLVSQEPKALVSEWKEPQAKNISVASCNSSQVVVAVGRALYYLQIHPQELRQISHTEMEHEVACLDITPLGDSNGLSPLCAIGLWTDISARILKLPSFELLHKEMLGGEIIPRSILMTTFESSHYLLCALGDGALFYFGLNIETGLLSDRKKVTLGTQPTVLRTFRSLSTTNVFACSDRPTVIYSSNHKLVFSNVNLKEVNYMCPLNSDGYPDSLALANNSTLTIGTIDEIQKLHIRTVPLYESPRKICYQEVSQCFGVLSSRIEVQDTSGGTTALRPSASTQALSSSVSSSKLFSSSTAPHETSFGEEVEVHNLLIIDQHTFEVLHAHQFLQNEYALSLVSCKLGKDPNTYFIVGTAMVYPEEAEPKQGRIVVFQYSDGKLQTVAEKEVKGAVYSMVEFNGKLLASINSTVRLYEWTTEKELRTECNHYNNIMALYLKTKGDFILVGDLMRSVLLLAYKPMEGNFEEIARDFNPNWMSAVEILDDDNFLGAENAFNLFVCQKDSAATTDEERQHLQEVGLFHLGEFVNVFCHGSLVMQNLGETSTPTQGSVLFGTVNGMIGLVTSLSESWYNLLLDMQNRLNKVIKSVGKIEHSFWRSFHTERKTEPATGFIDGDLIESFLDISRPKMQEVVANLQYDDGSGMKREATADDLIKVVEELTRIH
# Chain of CRL4A complex (CUL4A, DDB1, RBX1) (P62877 whole entry, chain 3 of 3): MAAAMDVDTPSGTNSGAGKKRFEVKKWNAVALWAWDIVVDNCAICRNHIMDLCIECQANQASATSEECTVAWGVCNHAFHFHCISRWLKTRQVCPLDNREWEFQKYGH
# Chain of His-DDB1 (recombinant) (Q16531 whole entry): as the sequence (Q16531 whole entry, chain 2 of 3) above
Binder,Kd (His-DDB1 (recombinant)) [µM],Kd [1] [µM]
B1,~5,~13
B2,~5,~13
